Experimental data from article PMC2579254 (The EMBO Journal, 2008).
Each block holds one binder with its values, some of them ahead of it.

B3: ROCK-I^1−406 (kinase and N-terminal dimerisation domains), His tag cleaved (domain or fragment, UniProt Q13464 1-406, looked up)
chain: MSTGDSFETRFEKMDNLLRDPKSEVNSDCLLDGLDALVYDLDFPALRKNKNIDNFLSRYKDTINKIRDLRMKAEDYEVVKVIGRGAFGEVQLVRHKSTRKVYAMKLLSKFEMIKRSDSAFFWEERDIMAFANSPWVVQLFYAFQDDRYLYMVMEYMPGGDLVNLMSNYDVPEKWARFYTAEVVLALDAIHSMGFIHRDVKPDNMLLDKSGHLKLADFGTCMKMNKEGMVRCDTAVGTPDYISPEVLKSQGGDGYYGRECDWWSVGVFLYEMLVGDTPFYADSLVGTYSKIMNHKNSLTFPDDNDISKEAKNLICAFLTDREVRLGRNGVEEIKRHLFFKNDQWAWETLRDTVAPVVPDLSSDIDTSNFDDLEEDKGEEETFPIPKAFVGNQLPFVGFTYYSNRRYL

Experiments:
[1] = molecular target: His6-ROCK-I^1−406 (purified without cleavage of the His6 tag) (UniProt Q13464 1-406); test: pull-down
[2] = molecular target: B3; test: crystal structure
[3] = molecular target: the molecule itself; test: crystal structure

binding result [1]: binds
B1: GST–RhoE^WT (natural protein, UniProt P61587 1-244, looked up)
chain: MKERRASQKLSSKSIMDPNQNVKCKIVVVGDSQCGKTALLHVFAKDCFPENYVPTVFENYTASFEIDTQRIELSLWDTSGSPYYDNVRPLSYPDSDAVLICFDISRPETLDSVLKKWKGEIQEFCPNTKMLLVGCKSDLRTDVSTLVELSNHRQTPVSYDQGANMAKQIGAATYIECSALQSENSVRDIFHVATLACVNKTNKNVKRNKSQRATKRISHMPSRPELSAVATDLRKDKAKSCTVM

binding result [2]: binds
B2: RhoE^1−200 (RhoE-GTP/Mg2+, residues 1–200) (domain or fragment, UniProt P61587 1-200, looked up)
chain: MKERRASQKLSSKSIMDPNQNVKCKIVVVGDSQCGKTALLHVFAKDCFPENYVPTVFENYTASFEIDTQRIELSLWDTSGSPYYDNVRPLSYPDSDAVLICFDISRPETLDSVLKKWKGEIQEFCPNTKMLLVGCKSDLRTDVSTLVELSNHRQTPVSYDQGANMAKQIGAATYIECSALQSENSVRDIFHVATLACVNK

Binder: B3
stoichiometry N [3]: 2
